{"source": "the supplement of paper PMC9112550", "about": "“Optimization of the antimicrobial peptide Bac7 by deep mutational scanning” (BMC Biology, 2022);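 further: peptides expressed intracellularly from a pBAD plasmid library in pooled LB shake-flask culture, induced with 0.3% L-arabinose, DNA abundance read by NGS, three biological replicates, DESeq2 with apeglm shrinkage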"}
{"tested_on": "Escherichia coli TOP10", "assay": "shrunken log2 fold change of peptide-encoding DNA abundance (4.5 h post-induction vs induction); higher = less antimicrobial activity (less host growth inhibition)", "settings": "time post-induction: 4.5 h; library: site-saturation at positions 5, 18, 19, 20"}
{"sequence": "RRIRERPPRLPRPRPRPWMSPRP", "shrunken log2 fold change": -0.0212}
{"sequence": "RRIRNRPPRLPRPRPRPPNKPRP", "shrunken log2 fold change": 0.125}
{"sequence": "RRIRSRPPRLPRPRPRPMYIPRP", "shrunken log2 fold change": -0.354}
{"sequence": "RRIRWRPPRLPRPRPRPWYKPRP", "shrunken log2 fold change": -0.1}
{"sequence": "RRIRERPPRLPRPRPRPQQTPRP", "shrunken log2 fold change": -0.0895}
{"sequence": "RRIRQRPPRLPRPRPRPGAKPRP", "shrunken log2 fold change": 0.177}
{"sequence": "RRIRCRPPRLPRPRPRPHMAPRP", "shrunken log2 fold change": -0.374}
{"sequence": "RRIRRRPPRLPRPRPRPTFVPRP", "shrunken log2 fold change": 0.998}
{"sequence": "RRIRNRPPRLPRPRPRPAPAPRP", "shrunken log2 fold change": 0.959}
{"sequence": "RRIRFRPPRLPRPRPRPFSLPRP", "shrunken log2 fold change": -0.375}
{"sequence": "RRIRSRPPRLPRPRPRPKEYPRP", "shrunken log2 fold change": 0.167}
{"sequence": "RRIRRRPPRLPRPRPRPLSGPRP", "shrunken log2 fold change": 0.379}
{"sequence": "RRIRKRPPRLPRPRPRPAVCPRP", "shrunken log2 fold change": 0.356}
{"sequence": "RRIRFRPPRLPRPRPRPPRVPRP", "shrunken log2 fold change": 0.605}
{"sequence": "RRIRARPPRLPRPRPRPFESPRP", "shrunken log2 fold change": 0.0991}
{"sequence": "RRIRRRPPRLPRPRPRPDPSPRP", "shrunken log2 fold change": 0.213}
{"sequence": "RRIRNRPPRLPRPRPRPGQAPRP", "shrunken log2 fold change": 0.0345}
{"sequence": "RRIRLRPPRLPRPRPRPCPDPRP", "shrunken log2 fold change": -0.136}
{"sequence": "RRIRDRPPRLPRPRPRPMPPPRP", "shrunken log2 fold change": 0.361}
{"sequence": "RRIRIRPPRLPRPRPRPDGAPRP", "shrunken log2 fold change": -0.237}
{"sequence": "RRIRQRPPRLPRPRPRPQSKPRP", "shrunken log2 fold change": -0.574}
{"sequence": "RRIRDRPPRLPRPRPRPGGRPRP", "shrunken log2 fold change": 0.569}
{"sequence": "RRIRVRPPRLPRPRPRPISMPRP", "shrunken log2 fold change": 0.0223}
{"sequence": "RRIRTRPPRLPRPRPRPIWMPRP", "shrunken log2 fold change": -0.101}
{"sequence": "RRIRHRPPRLPRPRPRPQSYPRP", "shrunken log2 fold change": -0.175}
{"sequence": "RRIRVRPPRLPRPRPRPMYPPRP", "shrunken log2 fold change": -0.413}
{"sequence": "RRIRNRPPRLPRPRPRPAAVPRP", "shrunken log2 fold change": 0.158}
{"sequence": "RRIRWRPPRLPRPRPRPWLTPRP", "shrunken log2 fold change": -0.0976}
{"sequence": "RRIRKRPPRLPRPRPRPNPEPRP", "shrunken log2 fold change": 0.0292}
{"sequence": "RRIRARPPRLPRPRPRPEAYPRP", "shrunken log2 fold change": 0.114}
{"sequence": "RRIRQRPPRLPRPRPRPNSGPRP", "shrunken log2 fold change": -0.0316}
{"sequence": "RRIRCRPPRLPRPRPRPFWEPRP", "shrunken log2 fold change": -0.0195}
{"sequence": "RRIRDRPPRLPRPRPRPTMVPRP", "shrunken log2 fold change": 0.028}
{"sequence": "RRIRLRPPRLPRPRPRPLTGPRP", "shrunken log2 fold change": -0.0782}
{"sequence": "RRIRHRPPRLPRPRPRPRRGPRP", "shrunken log2 fold change": 0.343}
{"sequence": "RRIRDRPPRLPRPRPRPEIQPRP", "shrunken log2 fold change": 0.7}
{"sequence": "RRIRIRPPRLPRPRPRPQRMPRP", "shrunken log2 fold change": -0.387}
{"sequence": "RRIRDRPPRLPRPRPRPMAMPRP", "shrunken log2 fold change": 0.25}
{"sequence": "RRIRWRPPRLPRPRPRPCYQPRP", "shrunken log2 fold change": 0.0103}
{"sequence": "RRIRARPPRLPRPRPRPADEPRP", "shrunken log2 fold change": 0.678}
{"sequence": "RRIRVRPPRLPRPRPRPWKNPRP", "shrunken log2 fold change": 0.0224}
{"sequence": "RRIRYRPPRLPRPRPRPICHPRP", "shrunken log2 fold change": -0.305}
{"sequence": "RRIRPRPPRLPRPRPRPQQPPRP", "shrunken log2 fold change": 0.132}
{"sequence": "RRIRERPPRLPRPRPRPLEKPRP", "shrunken log2 fold change": 0.094}
{"sequence": "RRIRIRPPRLPRPRPRPTPFPRP", "shrunken log2 fold change": -0.133}
{"sequence": "RRIRERPPRLPRPRPRPMIIPRP", "shrunken log2 fold change": -0.317}
{"sequence": "RRIRGRPPRLPRPRPRPCTDPRP", "shrunken log2 fold change": 0.522}
{"sequence": "RRIRLRPPRLPRPRPRPAGGPRP", "shrunken log2 fold change": 0.169}
{"sequence": "RRIRLRPPRLPRPRPRPMTWPRP", "shrunken log2 fold change": -0.384}
{"sequence": "RRIRYRPPRLPRPRPRPIVFPRP", "shrunken log2 fold change": -0.58}
{"sequence": "RRIRTRPPRLPRPRPRPTSIPRP", "shrunken log2 fold change": -0.195}
{"sequence": "RRIRCRPPRLPRPRPRPGGEPRP", "shrunken log2 fold change": 0.538}
{"sequence": "RRIRMRPPRLPRPRPRPEFEPRP", "shrunken log2 fold change": -0.0141}
{"sequence": "RRIRGRPPRLPRPRPRPPQHPRP", "shrunken log2 fold change": 0.789}
{"sequence": "RRIRERPPRLPRPRPRPDRAPRP", "shrunken log2 fold change": 0.00194}
{"sequence": "RRIRSRPPRLPRPRPRPHCYPRP", "shrunken log2 fold change": -0.302}
{"sequence": "RRIRCRPPRLPRPRPRPTENPRP", "shrunken log2 fold change": 0.0623}
{"sequence": "RRIRMRPPRLPRPRPRPIPRPRP", "shrunken log2 fold change": 0.634}
{"sequence": "RRIRLRPPRLPRPRPRPMFCPRP", "shrunken log2 fold change": -0.752}
{"sequence": "RRIRERPPRLPRPRPRPIMVPRP", "shrunken log2 fold change": -0.023}
{"sequence": "RRIRVRPPRLPRPRPRPKSEPRP", "shrunken log2 fold change": 0.0185}
{"sequence": "RRIRDRPPRLPRPRPRPDKFPRP", "shrunken log2 fold change": 0.0288}
{"sequence": "RRIRFRPPRLPRPRPRPRAMPRP", "shrunken log2 fold change": 0.241}
{"sequence": "RRIRDRPPRLPRPRPRPDYTPRP", "shrunken log2 fold change": -0.276}
{"sequence": "RRIRPRPPRLPRPRPRPQMYPRP", "shrunken log2 fold change": -0.338}
{"sequence": "RRIRRRPPRLPRPRPRPWTFPRP", "shrunken log2 fold change": -0.103}
{"sequence": "RRIRERPPRLPRPRPRPEYVPRP", "shrunken log2 fold change": -0.0151}
{"sequence": "RRIRPRPPRLPRPRPRPKQQPRP", "shrunken log2 fold change": 0.214}
{"sequence": "RRIRCRPPRLPRPRPRPCNDPRP", "shrunken log2 fold change": -0.173}
{"sequence": "RRIRVRPPRLPRPRPRPLEEPRP", "shrunken log2 fold change": 0.0793}
{"sequence": "RRIRKRPPRLPRPRPRPNCWPRP", "shrunken log2 fold change": 0.621}
{"sequence": "RRIRHRPPRLPRPRPRPPDPPRP", "shrunken log2 fold change": 0.832}
{"sequence": "RRIRCRPPRLPRPRPRPGQMPRP", "shrunken log2 fold change": -0.147}
{"sequence": "RRIRHRPPRLPRPRPRPCHDPRP", "shrunken log2 fold change": 0.0948}
{"sequence": "RRIRSRPPRLPRPRPRPWPWPRP", "shrunken log2 fold change": 0.0913}
{"sequence": "RRIRCRPPRLPRPRPRPKHPPRP", "shrunken log2 fold change": -0.0559}
{"sequence": "RRIRQRPPRLPRPRPRPCNCPRP", "shrunken log2 fold change": -0.0201}
{"sequence": "RRIRDRPPRLPRPRPRPVNKPRP", "shrunken log2 fold change": -0.0502}
{"sequence": "RRIRDRPPRLPRPRPRPGVEPRP", "shrunken log2 fold change": 0.022}
{"sequence": "RRIRCRPPRLPRPRPRPADMPRP", "shrunken log2 fold change": -0.115}
{"sequence": "RRIRRRPPRLPRPRPRPRHIPRP", "shrunken log2 fold change": 0.945}
{"sequence": "RRIRGRPPRLPRPRPRPNPEPRP", "shrunken log2 fold change": 0.511}
{"sequence": "RRIRIRPPRLPRPRPRPFIAPRP", "shrunken log2 fold change": -0.719}
{"sequence": "RRIRARPPRLPRPRPRPSNHPRP", "shrunken log2 fold change": -0.089}
{"sequence": "RRIRTRPPRLPRPRPRPFWAPRP", "shrunken log2 fold change": 0.346}
{"sequence": "RRIRRRPPRLPRPRPRPGVKPRP", "shrunken log2 fold change": 0.187}
{"sequence": "RRIRIRPPRLPRPRPRPTQLPRP", "shrunken log2 fold change": 0.31}
{"sequence": "RRIRERPPRLPRPRPRPDGRPRP", "shrunken log2 fold change": -0.03}
{"sequence": "RRIRVRPPRLPRPRPRPCACPRP", "shrunken log2 fold change": 0.0537}
{"sequence": "RRIRNRPPRLPRPRPRPYTMPRP", "shrunken log2 fold change": -0.38}
{"sequence": "RRIRMRPPRLPRPRPRPIKIPRP", "shrunken log2 fold change": -0.0554}
{"sequence": "RRIRRRPPRLPRPRPRPTNSPRP", "shrunken log2 fold change": 1.15}
{"sequence": "RRIRTRPPRLPRPRPRPMTEPRP", "shrunken log2 fold change": -0.0359}
{"sequence": "RRIRRRPPRLPRPRPRPVIHPRP", "shrunken log2 fold change": -0.0832}
{"sequence": "RRIRLRPPRLPRPRPRPFPEPRP", "shrunken log2 fold change": -0.0878}
{"sequence": "RRIRTRPPRLPRPRPRPMLDPRP", "shrunken log2 fold change": -0.0137}
{"sequence": "RRIRHRPPRLPRPRPRPLCQPRP", "shrunken log2 fold change": -0.316}
{"sequence": "RRIRSRPPRLPRPRPRPRYNPRP", "shrunken log2 fold change": -0.479}
{"sequence": "RRIRTRPPRLPRPRPRPPYYPRP", "shrunken log2 fold change": -0.535}
{"sequence": "RRIRWRPPRLPRPRPRPSTNPRP", "shrunken log2 fold change": -0.127}
{"sequence": "RRIRARPPRLPRPRPRPKLHPRP", "shrunken log2 fold change": 0.366}
{"sequence": "RRIRVRPPRLPRPRPRPIRRPRP", "shrunken log2 fold change": 0.0517}
{"sequence": "RRIRARPPRLPRPRPRPPAHPRP", "shrunken log2 fold change": 0.912}
{"sequence": "RRIRARPPRLPRPRPRPQMIPRP", "shrunken log2 fold change": 0.181}
{"sequence": "RRIRTRPPRLPRPRPRPEIQPRP", "shrunken log2 fold change": -0.00275}
{"sequence": "RRIRFRPPRLPRPRPRPESKPRP", "shrunken log2 fold change": 0.183}
{"sequence": "RRIRHRPPRLPRPRPRPVPWPRP", "shrunken log2 fold change": 0.0803}
{"sequence": "RRIRWRPPRLPRPRPRPDYWPRP", "shrunken log2 fold change": 0.122}
{"sequence": "RRIRRRPPRLPRPRPRPSCMPRP", "shrunken log2 fold change": 0.019}
{"sequence": "RRIRLRPPRLPRPRPRPSTHPRP", "shrunken log2 fold change": -0.59}
{"sequence": "RRIRFRPPRLPRPRPRPLSPPRP", "shrunken log2 fold change": -0.476}
{"sequence": "RRIRYRPPRLPRPRPRPRQAPRP", "shrunken log2 fold change": 0.0877}
{"sequence": "RRIRARPPRLPRPRPRPPKPPRP", "shrunken log2 fold change": 0.689}
{"sequence": "RRIRGRPPRLPRPRPRPICVPRP", "shrunken log2 fold change": 0.269}
{"sequence": "RRIRNRPPRLPRPRPRPAESPRP", "shrunken log2 fold change": 0.37}
{"sequence": "RRIRDRPPRLPRPRPRPTTGPRP", "shrunken log2 fold change": 0.673}
{"sequence": "RRIRIRPPRLPRPRPRPCPCPRP", "shrunken log2 fold change": -0.493}
{"sequence": "RRIRQRPPRLPRPRPRPLIKPRP", "shrunken log2 fold change": -0.249}
{"sequence": "RRIRDRPPRLPRPRPRPEIIPRP", "shrunken log2 fold change": 0.0753}
{"sequence": "RRIRARPPRLPRPRPRPIGGPRP", "shrunken log2 fold change": -0.0402}
{"sequence": "RRIRWRPPRLPRPRPRPFENPRP", "shrunken log2 fold change": -0.15}
{"sequence": "RRIRWRPPRLPRPRPRPWVAPRP", "shrunken log2 fold change": 0.191}
{"sequence": "RRIRVRPPRLPRPRPRPLHQPRP", "shrunken log2 fold change": 0.0791}
{"sequence": "RRIRPRPPRLPRPRPRPLSHPRP", "shrunken log2 fold change": -0.27}
{"sequence": "RRIRKRPPRLPRPRPRPNEEPRP", "shrunken log2 fold change": "-1.35e-05"}
